Data taken from US20130059311A1, “METHOD FOR THE IDENTIFICATION OF MEMORY MODULATING COMPOUNDS BY ASSESSING KIBRA EXPRESSION” (SYGNIS BIOSCIENCE GMBH & CO KG, priority 2010, published 2013).

Assays:
[1] = test system: KIBRA (KIdney BRAin protein)
[2] = molecular target: T1, PKC zeta (Homo sapiens, UniProt Q05513); assay: PKC zeta kinase activity assay on pulldowns from COS cells; format: biochemical; conditions: pulldowns from COS cells over-expressing PKC zeta and KIBRA vs PKC zeta alone
T1 construct: expressed in transfected cells; host or cells: COS cells
T1 sequence (Q05513 1-592): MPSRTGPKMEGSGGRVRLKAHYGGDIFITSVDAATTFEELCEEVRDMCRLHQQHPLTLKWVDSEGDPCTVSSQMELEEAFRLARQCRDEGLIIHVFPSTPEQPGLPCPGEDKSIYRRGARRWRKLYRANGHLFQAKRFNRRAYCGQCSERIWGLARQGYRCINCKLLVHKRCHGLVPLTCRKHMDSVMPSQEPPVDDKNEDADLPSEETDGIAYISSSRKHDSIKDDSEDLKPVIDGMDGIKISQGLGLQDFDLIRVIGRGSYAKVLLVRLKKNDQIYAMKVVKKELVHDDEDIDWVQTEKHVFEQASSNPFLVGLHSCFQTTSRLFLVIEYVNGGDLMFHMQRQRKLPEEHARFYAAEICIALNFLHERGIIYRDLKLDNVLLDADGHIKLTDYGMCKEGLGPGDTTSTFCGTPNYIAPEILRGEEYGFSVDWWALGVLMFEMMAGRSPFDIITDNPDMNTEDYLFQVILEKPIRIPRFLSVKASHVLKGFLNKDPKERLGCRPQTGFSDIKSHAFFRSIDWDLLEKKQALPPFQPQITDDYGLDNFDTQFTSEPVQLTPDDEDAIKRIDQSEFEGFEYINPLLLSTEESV
Description: To investigate the impact of KIBRA on PKC zeta activity itself, PKC zeta activity were determined in an enzyme assay. The kinase activity in the assay is detected by the phosphorylation of a substrate peptide by an antibody reaction according to manufactures instruction (HTScan PKC zeta kinase assay kit, Cell Signaling Technology Inc., Danvers, Mass., USA). The antibody is detected by a lanthanide-labeled secondary antibody, which can be measured in a fluorescent plate reader.
In order to analyze PKC zeta activity with and without KIBRA, COS cells over-expressing PKC zeta alone or in combination with KIBRA were lysed and PKC zeta was pulled down with respective PKC zeta binding beads.
Previous studies have shown that PKC zeta co-immunoprecipitates with KIBRA, and immunoreactive bands for KIBRA in the western blot analysis confirmed that PKC zeta pulldowns include KIBRA protein from cells also over-expressing KIBRA. When pulldowns from cells over-expressing PKC zeta were compared to cells over-expressing both PKC zeta and KIBRA for the phosphorylation of substrate peptide in the activity assay, a strong increase of PKC zeta activity by 50% was observed. […] Analysis of the kinase activity of the truncated form confirmed that the phosphorylation of the peptide was only mediated by PKC zeta and no other kinase attached to the beads.

Substance | PKC zeta kinase activity (phosphorylation of substrate peptide, HTScan PKC zeta kinase assay kit) of PKC zeta pulldowns [1] | increase of PKC zeta activity [2] [%]
protein kinase C zeta | a strong increase of PKC zeta activity by 50% was observed | 
KIBRA: KIBRA protein over-expressed in COS cells together with PKC zeta |  | 50
